# From the supplement of paper PMC12042874
# ± gives the uncertainty stated by the source.
# Experiment: amyloid nucleation score (Sup35N fusion, yeast selection) (log enrichment); library NNK3; higher = more nucleation; inactive = no reads after selection
# In short: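 Peptides of 20 random codons fused to Sup35N were expressed in psi-negative yeast, induced 24 hours with 100 μM copper sulfate, then grown 7 days at 30°C on medium lacking adenine and uracil. Input and output plasmid inserts were Illumina-sequenced. Nucleation score is the DiMSum log enrichment of output over input reads, centred on the mode score of non-aggregating sequences, excluding sequences with under 100 input reads. Random libraries had three technical output replicates.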
row,Substance,amyloid nucleation score
1,SPLYGYGDKRQVRYLLTGSC,inactive
2,SPTLPGCLVLEIINDNI,inactive
3,SPWYVVFMCNLIFYKGEFTR,inactive
4,SQDGYDLHRSFRLLEVGSEL,inactive
5,SQITRMTPPVSIAADSRFVE,inactive
6,SQKFGALVFI,inactive
7,SQLRMFRVARVLIAEVNAP,inactive
8,SQNAQESIPMRKFITPSRVF,inactive
9,SQTIYGI,inactive
10,SQVDIMGKPADAFVPWFDGS,inactive
11,SRAAPRFRSIP,inactive
12,SRCPRMGYQHALRRWLLPVW,inactive
13,SRGVRIDKMVWNVIGFCHGW,2.8 ± 0.08
14,SRILRYVTLSEYWFQPIGLD,inactive
15,SRKLCSHR,-0.557 ± 0.66
16,SRKVRGYLLMTNFVCLSNYV,inactive
17,SRLCARMSSGKTIGYCNLFL,inactive
18,SRLEGIAGVKKGVMVNQKRL,inactive
19,SRLNFVLVSMQD,inactive
20,SRLWYSPGDYQVFKVRLHIW,inactive
21,SRNILRLKLIRLCSRKGIWW,inactive
22,SRQARCKPCVSCWDRCMWMI,inactive
23,SRRFFRWLSYTFGDGRGWLL,inactive
24,SRRSLNGIN,-0.05 ± 0.3

row,Substance,amyloid nucleation score
1,SRRSSS,1.28 ± 0.11
2,SRSSCRVIPT,inactive
3,SRSVDLLSLSRYIYLESRYD,inactive
4,SRSVTESLCLYT,inactive
5,SRTAKSFDATWMITFYGWGP,inactive
6,SRTGVC,-0.227 ± 1.5
7,SRVLTYDT,inactive
8,SRWATGWTTIISYMEPWFRA,inactive
9,SRYHLDFRYYSINKSLMSGV,inactive
10,SSASYVHCDFYIFGGLAPSN,2.8 ± 0.063
11,SSCTLVKAGLVNFLRARYSG,inactive
12,SSDFTSWDVREILGRAVVLC,inactive
13,SSDILASFGCYSNFHLSHII,inactive
14,SSDRLYFINGRMRNRFARFC,inactive
15,SSDSIKTWWKNTNVICVSGG,inactive
16,SSDSVNLIRYLYVRPRFPIH,inactive
17,SSECSMALIL,inactive
18,SSFDSAIEA,inactive
19,SSFGTQLYWNMSKCRFTRGT,1.16 ± 0.16
20,SSFLFVKLLIMNRLVQKIYA,inactive
21,SSGWNFPCSPSVMPDVVGVG,inactive
22,SSHLVWCYDANNHWADHK,inactive
23,SSKHC,inactive
24,SSLITFAPIPSLYWDCFSRF,inactive

row,Substance,amyloid nucleation score
1,SSLKWYTHPAMCYAHTWSIT,inactive
2,SSMICVQFGM,inactive
3,SSMLI,inactive
4,SSNDDFWIKGGQCEYIRFRL,inactive
5,SSPDCNYNECVPGACERRGF,inactive
6,SSQVET,inactive
7,SSSKNACDPC,inactive
8,SSSNTRFVGAERCVGSWCGS,inactive
9,SSSVTVYRFKGSTSSLGTNY,inactive
10,SSVMFVRIVLRIGGYHLAAR,inactive
11,SSVTCLLSSLRCIPRGVVFM,inactive
12,SSVVGMSGLG,inactive
13,SSVYCL,-0.781 ± 1.3
14,SSWDGLKRL,inactive
15,SSWPICMPASQNLLLNIGLG,inactive
16,SSYYFFCDGLIFELLSQDNS,inactive
17,STHGWGGWLSVYIGNP,inactive
18,STIAGPFLKFARSGTCPPVP,-0.776 ± 1.8
19,STLQRDIICKCIHAKVTVWV,inactive
20,STRILRLHITSMLDFRTTGA,inactive
21,STSSLASNYRDFSIR,inactive
22,STTIGF,inactive
23,STTMAFAAIVFEIYSVTSWF,inactive
24,STWRASIVPSFMVRGCWSIK,inactive

row,Substance,amyloid nucleation score
1,STWTWMPHKERHITLSKEFW,inactive
2,STYAPWSMHHFLDLYMSNRS,inactive
3,SVESACFTSSWVNHFFTFSN,inactive
4,SVESQGLWGCCILSKR,2.7 ± 0.06
5,SVFRSMSTSILVFSPVHYCE,inactive
6,SVGGEWRS,1.34 ± 0.14
7,SVGVWKYFDLWAAGFLSSSG,inactive
8,SVIASRSLIYD,inactive
9,SVLFLTRIEEVGVRYMFKDC,inactive
10,SVLLHLNRNVMWTMPSRGAF,inactive
11,SVMSLDVVMVVRYFY,0.999 ± 0.12
12,SVNFSYASAIPHAQMIQVRV,inactive
13,SVNLFVLMYLFII,1.9 ± 0.061
14,SVQFFPDCCQGELTTNTVRS,inactive
15,SVRTSAYYKFQRTERVSMCM,inactive
16,SVSHAE,inactive
17,SVTLRLVFRCP,1.05 ± 0.15
18,SVYDNYSLGNRYWERTFWLS,inactive
19,SVYGIYGSNYMNTFVVVLVG,inactive
20,SVYYTPCAFFRLIEGNLEGL,inactive
21,SWCWYMCSGLNIEIAKGLTR,inactive
22,SWDFAYLYELIYFRFMFQGC,inactive
23,SWFPP,inactive
24,SWFVHKFSIRYNLFDFSYIF,inactive

row,Substance,amyloid nucleation score
1,SWKARDYRGSVLGSIIRDFN,inactive
2,SWQNWGRGGCSGLFVSRWVT,inactive
3,SWRDILVKRHS,inactive
4,SWRRWSPCLIEVWHMFSLVT,inactive
5,SWVHGERLMHDCQTLLLYSW,inactive
6,SWVNDRQNFPASLLYRDYLL,inactive
7,SWYAKGFI,inactive
8,SWYGQLLCVTVVRYHCAPCG,inactive
9,SYCDSNRGVDLV,-0.611 ± 0.75
10,SYDGWCVTYFDV,inactive
11,SYDMTLHG,0.436 ± 0.18
12,SYFGDYLKIYFFYTQHNLSC,inactive
13,SYFGRLIQSLTRQWTTVARS,inactive
14,SYFTMTDSSFSVAFANLLVY,0.289 ± 0.78
15,SYFWILRAWS,inactive
16,SYGALLNGYGGKSSAPIRWS,inactive
17,SYGDPCQAKGQIRIVYGWHW,0.308 ± 0.25
18,SYGPRPYTHHSPHAAGMTLE,inactive
19,SYHYHATILSWTYYVTVYFL,inactive
20,SYLPEFRCVVRFKFFQDKLL,inactive
21,SYLRQDDVEMAVIWTGHMSV,inactive
